B1: Wheat Lr67 (susceptible) protein, Lr67(sus), SUT sugar transporter, SEQ ID NO:4 (Triticum aestivum) (protein)
chain: MPGGGFAVSAPSGVEFEAKITPIVIISCIMAATGGLMFGYDVGISGGVTSMDDFLREFFPAVLRRKNQDKESNYCKYDNQGLQLFTSSLYLAGLTATFFASYTTRRLGRRLTMLIAGVFFIIGVIFNGAAQNLAMLIIGRILLGCGVGFANQAVPLFLSEIAPTRIRGGLNILFQLNVTIGILFANLVNYGTSKIHPWGWRLSLSLAGIPAAMLTLGALFVTDTPNSLIERGHLEEGKAVLKRIRGTDNVEPEFNEIVEASRIAQEVKHPFRNLLQRRNRPQLVIAVLLQIFQQFTGINAIMFYAPVLFNTLGFKSDASLYSAVITGAVNVLATLVSVYAVDRAGRRALLLEAGVQMFLSQVVIAVVLGIKVTDKSDNLGHGWAILVVVMVCTYVASFAWSWGPLGWLIPSETFPLETRSAGQSVTVCVNLLFTFLIAQAFLSMLCHLKFAIFIFFSAWVLVMSVFVLFFLPETKNVPIEEMTDKVWKQHWFWKRFMDDDDHHHNIANGKNATV
B2: Lr67(res): Wheat Lr67 (resistant) protein, 514 amino acids, arginine at position 144 and leucine at position 387 (protein, listed as Triticum aestivum)
chain: MPGGGFAVSAPSGVEFEAKITPIVIISCIMAATGGLMFGYDVGISGGVTSMDDFLREFFPAVLRRKNQDKESNYCKYDNQGLQLFTSSLYLAGLTATFFASYTTRRLGRRLTMLIAGVFFIIGVIFNGAAQNLAMLIIGRILLRCGVGFANQAVPLFLSEIAPTRIRGGLNILFQLNVTIGILFANLVNYGTSKIHPWGWRLSLSLAGIPAAMLTLGALFVTDTPNSLIERGHLEEGKAVLKRIRGTDNVEPEFNEIVEASRIAQEVKHPFRNLLQRRNRPQLVIAVLLQIFQQFTGINAIMFYAPVLFNTLGFKSDASLYSAVITGAVNVLATLVSVYAVDRAGRRALLLEAGVQMFLSQVVIAVVLGIKVTDKSDNLGHGWAILLVVMVCTYVASFAWSWGPLGWLIPSETFPLETRSAGQSVTVCVNLLFTFLIAQAFLSMLCHLKFAIFIFFSAWVLVMSVFVLFFLPETKNVPIEEMTDKVWKQHWFWKRFMDDDDHHHNIANGKNATV

Assays:
[1] = biological target: T1, Wheat Lr67 (susceptible) protein, Lr67(sus), SUT sugar transporter, SEQ ID NO:4 (Triticum aestivum, UniProt W5ELX6); assay: Concentration-dependent uptake of [14C] glucose in yeast expressing Lr67(sus); assay type: cell-based; details: [14C] glucose uptake; Lr67(sus) expressed in hexose transport deficient Saccharomyces cerevisiae EBY.VW4000; Lineweaver-Burk linear regression
T1 construct: D-genome copy) in pRS416 with ADH1 promoter, expressed in S. cerevisiae EBY.VW4000 (hexose transport deficient)
T1 sequence (W5ELX6 1-514): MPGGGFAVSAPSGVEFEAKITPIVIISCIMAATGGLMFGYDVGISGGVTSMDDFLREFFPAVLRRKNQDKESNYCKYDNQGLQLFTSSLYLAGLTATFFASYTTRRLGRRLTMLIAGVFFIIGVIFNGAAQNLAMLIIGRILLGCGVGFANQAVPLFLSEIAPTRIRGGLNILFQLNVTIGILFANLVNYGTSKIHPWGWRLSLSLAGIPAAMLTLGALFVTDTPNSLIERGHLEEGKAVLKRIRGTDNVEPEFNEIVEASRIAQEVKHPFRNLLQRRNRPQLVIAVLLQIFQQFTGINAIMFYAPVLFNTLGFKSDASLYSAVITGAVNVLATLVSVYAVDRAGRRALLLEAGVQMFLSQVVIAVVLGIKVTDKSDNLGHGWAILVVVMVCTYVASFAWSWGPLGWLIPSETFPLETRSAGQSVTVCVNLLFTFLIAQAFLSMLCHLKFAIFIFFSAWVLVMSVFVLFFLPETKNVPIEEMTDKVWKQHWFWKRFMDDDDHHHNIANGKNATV
Experimental: (§1) The following experiments were completed using the protein coding regions for the Lr67 polypeptides (resistant and susceptible alleles) cloned into the yeast expression vector pRS416. This vector contained the constitutive ADH1 promoter and CYC1 terminator for expression of the inserted coding regions. The yeast strain employed was a hexose transport deficient variant of Saccharomyces cerevisiae named EBY.VW4000. Uptake was determined using radio labelled [^14C] glucose with incorporation radio-assayed by liquid scintillation counting.
(§2) The Lineweaver-Burk equation was used to convert data for linear regression analysis.

[2] = system: hexose transport deficient variant of Saccharomyces cerevisiae named EBY.VW4000; assay: Glucose uptake by yeast cells expressing Lr67 polypeptides, radio labelled [14C] glucose; assay type: cell-based; details: 100 μM [14C] glucose for 10 minutes, tested at 2 minute intervals, vs empty vector, FIG. 11
Description: as §1, with “EBY.VW4000.” for “EBY.VW4000. Uptake was determined using radio labelled [^14C] glucose with incorporation radio-assayed by liquid scintillation counting.”
as §2

[3] = substrate: OC[C@H]1OC(O)[C@H](O)[C@@H](O)[C@@H]1O; assay: cells, lysate or membranes; details: other: [14C] glucose uptake; Lr67(sus) expressed in hexose transport deficient Saccharomyces cerevisiae EBY.VW4000; Lineweaver-Burk linear regression

Molecule	Vmax [1] [nmol min^−1 g FW^−1]	Glucose uptake over time [2]	Km [3] [µM]
OC[C@H]1OC(O)[C@H](O)[C@@H](O)[C@@H]1O (stereo partly shown) [glucose]	3.02		
B1		capable of transporting glucose at a higher rate than yeast cells expressing the Lr67 resistant allele or empty vector	73
B2		did not show detectable glucose transport activity above the control	

— patent US12037595B2, “Rust resistance gene” (Commonwealth Scientific and Industrial Research Organisation, priority 2013, dated 2024)
